The target in test [1] is human epidermal growth factor receptor, endogenous in HEp-2 cells (human (endogenous in HEp-2)) (UniProt P00533).
Test [2] shares this target. The source holds these as a separate data set.

Regarding “Pmp21 on the surface of C. pneumoniae elementary bodies (from UniProt Q9Z6U5 31-1609) (natural protein)”, the infectivity of C. pneumoniae for cells preincubated 2 h with EGF in test [1] was 47 % reduction. For the same substance, the infectivity of C. pneumoniae for HEp-2 cells pretreated 2 h with cetuximab in test [2] stood at 54 % reduction.

These data come from article PMC3635982.
